Measured values as given in the RNAGym collection of RNA variant scans (doi:10.1073/pnas.2313332121).

B1: TPR t1 (parent)
chain: GACCAAUCUGCCCUCAGAGCUCGAGAACAUCUUCGGAUGCAGAGGAGGCAGGCUUCGGUGGCGCGAUAGCGCCAACGUCCUCAACCUCCAAUGCAUCCCACCACAUGAUGAUGCCUGAAGAGCCUUGGUUUUUUG

Variants of: B1
Assay: polymerase ribozyme fitness, log enrichment relative to wild type (log ratio); higher = more active; in vitro selection for triplet polymerase activity
Outline: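 Streptavidin-bead capture of gel-excised extended constructs, followed by RT-PCR, closed a single triplicate in vitro selection round. That round began by annealing PCR-built, transcribed mutant libraries of each subunit of a heterodimeric triplet polymerase ribozyme with a biotinylated primer, the partner subunit and triplets, then incubating them frozen at −7 °C. After Illumina sequencing of inputs and outputs, genotypes needed ≥10 input reads and ≥1 read per output. Fitness is the base-2 logarithm of genotype enrichment over wild-type enrichment, using inverse-variance-weighted replicate averages.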

Q: With GACCAAUCUGCCCUUAGAGCUCGAUUACAUCUUCGGAUGCAGAGGAGGCAAGCUUCGGUGGCGCGAUAGCGCCAACGUCCUCAACCUCCAAUGCAUCCUACCACAUGAUGAGGGCUGAAGAGCCUUGGUUUUUUA [C15U G25U A26U G51A C99U U112G C114G G135A] as the variant, how does the “polymerase ribozyme fitness (log ratio)” value read?
A: -6.73

Q: For GACCAAUCUGCCCUUAGAGCUCGAGAACAUCUUCGGAUGCAGAGGAGGCAGGCUUCGAUGUCGCGAUAGCGCCAACGUCCUCAACCUCCAAUGCAUCCCACCACAUGAUGAUGCCUGAAGAGCCUUGGUUUUUUG [C15U G58A G61U], which “polymerase ribozyme fitness (log ratio)” value is on record?
A: -1.4

Q: Which “polymerase ribozyme fitness (log ratio)” value does the source give for GACCAAUCUGCCCUUAGAGCUCGAGAACAUCUUCGGAUGCACAGGAGGCAGGCUUCGGUGGCGCGAUAGCGCCUACGUCCUCAACCUCCAAUGCAUCCCACCACAUGAUGAUGCCUGAAGAGCCUUGGUUUUUUG [C15U G42C A74U] here?
A: -3.74

Q: With GACCAAUCUGCCCUUAUAGCUCGAGAACAUCUUCGGAUGCAGAGGAGGCAGGCUUCGGUGGCGCGAUAGCGCCAACGUCCUCAACCUCCAGUGCAUCUCACCACAUGAUGCUGCCUGAAGAGCCUUGGUUUUUUG [C15U G17U A91G C98U A111C] as the variant, how does the “polymerase ribozyme fitness (log ratio)” value read?
A: -6.3

Q: Which “polymerase ribozyme fitness (log ratio)” value does the source give for GACCAAUCUGCCCUUAGAGCUCGAGAACAUCUUCGGAUGCAGAGGAGGCAGGCUUCGGUGCCGCGAUAGCGCCAACGUCCUCAACCUCCAAUGCAUCCCACCAAAUGAUGAUGCCUGAAGAGCUUUGGUUUUUUG [C15U G61C C104A C124U] here?
A: -3.58

Q: With GACCAAUCUGCCCUUAGAGCUCGAGAACAUCUUCGGAUGCAGAGGAGGCAGACUUCGGUGGUGCGAUAGCGCCUACGUCCUCUACCUCCAAUGCAUCCCACCACAUGAUGAUGCCUGAAGAGCCUUGGUUUAUUG [C15U G52A C62U A74U A83U U132A] as the variant, how does the “polymerase ribozyme fitness (log ratio)” value read?
A: -3.97

Q: For GACCAAUCUGCCCUUAGAGCUCGAGAACAUCUUCGGAUGCAGAGGAGGCAGGCUUCGGUGGCGCGAUAGCGCCAACGUCCUCAACCUCCAAUGCAUCCCACCACAUGAUGAUGCCUCAAGAGCCUUGGUUUUUUG [C15U G117C], which “polymerase ribozyme fitness (log ratio)” value is on record?
A: -2.96

Q: For GACCAAUCUGCCCUUAGAGCUCGAGAACAUCUUCGGAUGCAGAGGACUCAGGCUUCGGUGGGGCGAUAGCGCCAACGUCCUCAACCUCCAAUGCAUCCCUCCACAUGAUGAUGCCUGAAGAGCUUUGGUUUUUUG [C15U G47C G48U C62G A100U C124U], which “polymerase ribozyme fitness (log ratio)” value is on record?
A: -5.24

Q: For GACCAAUCUGCCCUUAGAGCUCGAGAACAUCUUCGGAUGCAGAGAAGGCAGGCUUAGGUGGCGCGAUAGCGCCAACCUCCUCAACCUGCAAUGCAUCCCACCACAUGAUGAUGCCUCAAGAGUCUUGGUUUUUUG [C15U G45A C56A G77C C88G G117C C123U], which “polymerase ribozyme fitness (log ratio)” value is on record?
A: -4.21

Q: For GACCAAUCUGCCCUUAGAGCUCGAGAACAUCUUCGGAUGCAGAGGAGGCAGGCUUCGAUGGCGCGAUAGCGCCAACGUUCUCAACCUCCAAUGCAUCCCACCACAUGAUGAUGCCUGAAGAGCCUUGGUUUUUUG [C15U G58A C79U], which “polymerase ribozyme fitness (log ratio)” value is on record?
A: -2.08

Q: Which “polymerase ribozyme fitness (log ratio)” value does the source give for GACCAAUCUGCCCUUAGAGCUCGAGAACAUCUUCGGAUGCAGAGGAGGCAGGCUUCUGUGGCGCGAUAGCGUCAACGUCCUAAACCUCCAAUGCAUCCCACCACAUGAUGCUGCCUGGAGAGCCUUGGUUUUUUG [C15U G57U C72U C82A A111C A118G] here?
A: -1.91

Q: For GACCAAUCUGCCCUUAGAGCUCGAGAACAUCUUCGGAUGCAGAGGAGGCAGGCUUCAAUGGCGCGAUAGCGCCAACGUCCUCAACCUCCAAUGCAUCCCACCACAUGAGGAUACCUGAAGAGCCUUGGUUUUUUG [C15U G57A G58A U109G G113A], which “polymerase ribozyme fitness (log ratio)” value is on record?
A: -7.08

Q: With GACCAAUCUGCCCUUAGAUCUCGAGAACAUCUUCGGAUGCAGAGGAGGCAGGCUUCGGUGGCGCGAUAGCGCCAACGUCCUCAACCUCCAAUGCAUCCCACCACAUGAUGAUGCCUGAAGAGCGUUGGUUUUUUG [C15U G19U C124G] as the variant, how does the “polymerase ribozyme fitness (log ratio)” value read?
A: -2.54

Q: Which “polymerase ribozyme fitness (log ratio)” value does the source give for GACCAAUCUGCCCUUAGAGCUCGAGAACAUCUUCGAAUGCAGAGGAGGCAGGCUUCGGUGGCGCGAUAUCGUCAACGUCCUCAACCUCCAAUGCAUCCCACCACAUGAUGAUGCCUGAAGAGCCUUGGUUUUUUG [C15U G36A G69U C72U] here?
A: -1.55

Q: Which “polymerase ribozyme fitness (log ratio)” value does the source give for GACCAAUCUGCCCUUAGAGCUCGAGAACAUCUUCGGAUGCAGAGGAGGCAGGCUUCGGUGGCGCGAUAGCCCCAACGUCCUCAACCUCCAAUGCAUCCCACCACAUGAUGAUGCCUGAAGAGCCUUGGUUUUUUG [C15U G71C] here?
A: -1.05

Q: With GACCAAUCUGCCCUUAGAGCUCGAGAACAUCUUCGGAUGCAGAGGAGGCAGGCUUCGGUGGCGCGAUAGCACCAACGUCCUCAACCUCCAAUGCAUCCCACCACAUGAUGAUGCCUGAAGAGCCUUGGUUUUUUG [C15U G71A] as the variant, how does the “polymerase ribozyme fitness (log ratio)” value read?
A: -2.11

Q: For GACCAAUCUGCCCUUAGAGCUCGAGAACAUCUUCGGAUCCAGAGGAGGCAGGCUUCGGUGGCGCGAUAUCGCCAACGUCCUCAACCUCCAAUGUAUCCCACCACAUGAUGAUGCUUGAAGAGACUUGGUUUUUUU [C15U G39C G69U C94U C115U C123A G135U], which “polymerase ribozyme fitness (log ratio)” value is on record?
A: -1.89

Q: Which “polymerase ribozyme fitness (log ratio)” value does the source give for GACCAAUCUGCCCUUAGAGCUCGAGAACAUCUUCGGAUGCAGAGGAGGCAGGCUUCGGUAGCGCGAUAGCGCCAACGUCCGGAACCUCCAAUGCAUCCCACCACAUGAUGAUGCCUGAGUAGACUUGGUUUUUUG [C15U G60A U81G C82G A119G G120U C123A] here?
A: -1.78

Q: Which “polymerase ribozyme fitness (log ratio)” value does the source give for GACCAAUCUGCCCUUAGAGCUCGAGAACAUCUUCAGAUGCAGAGGAGGCAGGCUUCGGUGGCGCGUUAGCGCCAACGUCCUCAACCUCCAAUGCAUCCCACCACAUGAAGAUGCCAGAAGAGCCUUGGUUUUUUG [C15U G35A A66U U109A U116A] here?
A: -5.44

Q: Which “polymerase ribozyme fitness (log ratio)” value does the source give for GACCAAUCUGCCCUUAGAGCUCGAGAACAUCUUCGGAUGCAGAGGAGGCAGGCUUCGGUGGCGCGAUAGCGCCAACGUCCUCAACCUCCAAUGCAUCCCACCACAUGAUGAUGCCUGAAGAGCAUUGGUUUUUUG [C15U C124A] here?
A: 0.552

Q: With GACCAAUCUGCCCUUAGAGCUCGAGAACAUCUUCGGAUACAGAGGAGGCAGGCUUCGGUAGCGCGAUAGCGCCAACGUCCUCAACCUCCAAUGCAUCCCACCACAUGAUGAUGCCUCAAAAGCCUUGGUUUUUUG [C15U G39A G60A G117C G120A] as the variant, how does the “polymerase ribozyme fitness (log ratio)” value read?
A: -4.8
